Laboratory results taken from publication PMC2874997 (Nucleic Acids Research, 2010).
Read-outs that look alike come from different tables or passages of the source.

Experiments:
DnaBN, DnaB(1-300) [1] = target: T1, DnaBN, DnaB(1-300) (Bacillus subtilis, UniProt P07908 1-300); assay: EMSA
T1 sequence: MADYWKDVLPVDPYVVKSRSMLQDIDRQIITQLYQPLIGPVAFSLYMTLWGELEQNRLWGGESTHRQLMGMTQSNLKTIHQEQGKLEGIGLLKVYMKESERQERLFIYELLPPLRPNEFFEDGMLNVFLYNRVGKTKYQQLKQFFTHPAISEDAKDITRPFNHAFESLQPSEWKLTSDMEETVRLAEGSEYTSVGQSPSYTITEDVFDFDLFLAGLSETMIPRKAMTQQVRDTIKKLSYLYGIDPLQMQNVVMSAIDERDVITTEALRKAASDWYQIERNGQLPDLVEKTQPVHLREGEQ

DnaB (native) [2] = target: T2, DnaB (native) (Bacillus subtilis, UniProt P07908 1-472); assay: EMSA
T2 sequence: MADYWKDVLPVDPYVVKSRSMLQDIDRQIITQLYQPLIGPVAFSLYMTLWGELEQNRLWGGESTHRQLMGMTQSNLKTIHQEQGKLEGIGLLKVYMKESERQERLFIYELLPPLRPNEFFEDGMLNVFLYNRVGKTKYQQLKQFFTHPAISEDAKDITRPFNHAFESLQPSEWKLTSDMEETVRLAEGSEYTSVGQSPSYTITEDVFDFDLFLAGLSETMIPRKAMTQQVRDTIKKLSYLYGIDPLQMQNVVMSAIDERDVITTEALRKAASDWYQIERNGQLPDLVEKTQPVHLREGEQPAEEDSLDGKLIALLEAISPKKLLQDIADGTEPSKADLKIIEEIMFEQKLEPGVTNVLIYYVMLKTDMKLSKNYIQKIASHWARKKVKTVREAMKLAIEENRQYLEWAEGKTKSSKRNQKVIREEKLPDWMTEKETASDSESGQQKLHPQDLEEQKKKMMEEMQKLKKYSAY

DnaBN, DnaB(1-300) [3] = target: T1, DnaBN, DnaB(1-300); assay: EMSA; remark: listed apart in the source
AUC [4] = target: the molecule itself; assay: AUC
DnaBN, DnaB(1-300) [5] = target: T1, DnaBN, DnaB(1-300); assay: EMSA; remark: listed apart in the source
DnaB (native) [6] = target: T2, DnaB (native); assay: EMSA; remark: listed apart in the source
AUC [7] = target: the molecule itself; assay: AUC; remark: listed apart in the source

B1: dT135 (ssDNA)
DNA: TTTTTTTTTTTTTTTTTTTTTTTTTTTTTTTTTTTTTTTTTTTTTTTTTTTTTTTTTTTTTTTTTTTTTTTTTTTTTTTTTTTTTTTTTTTTTTTTTTTTTTTTTTTTTTTTTTTTTTTTTTTTTTTTTTTTTTT
B1: binds (DnaBN, DnaB(1-300) [1]); binds (DnaB (native) [2]).

B2: dT90 (ssDNA)
DNA: TTTTTTTTTTTTTTTTTTTTTTTTTTTTTTTTTTTTTTTTTTTTTTTTTTTTTTTTTTTTTTTTTTTTTTTTTTTTTTTTTTTTTTTTTT
B2: binds (DnaB (native) [2]); binds (DnaBN, DnaB(1-300) [3]).

B3: DnaB(1-428), C-terminally truncated DnaB (domain or fragment, B. subtilis, UniProt P07908 1-428, looked up)
chain: MADYWKDVLPVDPYVVKSRSMLQDIDRQIITQLYQPLIGPVAFSLYMTLWGELEQNRLWGGESTHRQLMGMTQSNLKTIHQEQGKLEGIGLLKVYMKESERQERLFIYELLPPLRPNEFFEDGMLNVFLYNRVGKTKYQQLKQFFTHPAISEDAKDITRPFNHAFESLQPSEWKLTSDMEETVRLAEGSEYTSVGQSPSYTITEDVFDFDLFLAGLSETMIPRKAMTQQVRDTIKKLSYLYGIDPLQMQNVVMSAIDERDVITTEALRKAASDWYQIERNGQLPDLVEKTQPVHLREGEQPAEEDSLDGKLIALLEAISPKKLLQDIADGTEPSKADLKIIEEIMFEQKLEPGVTNVLIYYVMLKTDMKLSKNYIQKIASHWARKKVKTVREAMKLAIEENRQYLEWAEGKTKSSKRNQKVIREEKLP
For B3, the “stoichiometry N” value (AUC [4]) was 4.

TTTTTTTTTTTTTTTTTTTTTTTTTTTTTTTTTTTTTTTTTTTTT (ssDNA) [dT45]: binds (DnaBN, DnaB(1-300) [5]); binds (DnaB (native) [6]).

B4: DnaB(1-365), C-terminally truncated DnaB (domain or fragment, B. subtilis, UniProt P07908 1-365, looked up)
chain: MADYWKDVLPVDPYVVKSRSMLQDIDRQIITQLYQPLIGPVAFSLYMTLWGELEQNRLWGGESTHRQLMGMTQSNLKTIHQEQGKLEGIGLLKVYMKESERQERLFIYELLPPLRPNEFFEDGMLNVFLYNRVGKTKYQQLKQFFTHPAISEDAKDITRPFNHAFESLQPSEWKLTSDMEETVRLAEGSEYTSVGQSPSYTITEDVFDFDLFLAGLSETMIPRKAMTQQVRDTIKKLSYLYGIDPLQMQNVVMSAIDERDVITTEALRKAASDWYQIERNGQLPDLVEKTQPVHLREGEQPAEEDSLDGKLIALLEAISPKKLLQDIADGTEPSKADLKIIEEIMFEQKLEPGVTNVLIYYVMLK
In the case of B4, the “stoichiometry N” value (AUC [4]) is reported as 4.

B5: DnaBN, DnaB residues 1-300 (N-terminal domain plus the central domain) (domain or fragment, B. subtilis, UniProt P07908 1-300, looked up)
chain: MADYWKDVLPVDPYVVKSRSMLQDIDRQIITQLYQPLIGPVAFSLYMTLWGELEQNRLWGGESTHRQLMGMTQSNLKTIHQEQGKLEGIGLLKVYMKESERQERLFIYELLPPLRPNEFFEDGMLNVFLYNRVGKTKYQQLKQFFTHPAISEDAKDITRPFNHAFESLQPSEWKLTSDMEETVRLAEGSEYTSVGQSPSYTITEDVFDFDLFLAGLSETMIPRKAMTQQVRDTIKKLSYLYGIDPLQMQNVVMSAIDERDVITTEALRKAASDWYQIERNGQLPDLVEKTQPVHLREGEQ
In the case of B5, the Kd (AUC [7]) is reported as 500 nM and the “stoichiometry N” value (AUC [7]) is reported as 4.
